Measured values taken from patent US10677782B2, “Methods of determining interferon having direct inhibitory effects on tumors and uses thereof” (SUPERLAB FAR EAST LIMITED, priority 2013, dated 2020).

What was measured:
LRP6 mRNA in H460 cells = experiment: qPCR of Wnt-related receptor LRP6; format: cell-based, human; settings: 10 μg/ml, 24 hr; vs Mock
Excerpt: Total mRNA was isolated using TRIZOL Reagent (Invitrogen, Carlsbad, Calif.) according to the manufacturer's instructions. Complementary DNA (cDNA) was synthesized using a RT-PCR Kit (Cat #: FSQ-101, TOYOBO, Japan) according to the manufacturer's instructions and then subjected to qPCR with a SYBR Green PCR kit (Cat #: QPK-201, TOYOBO, Japan). The primers of the four Wnt pathway target genes were as follows: Axin2 sense primer: 5′-[…]-3′ (SEQ ID NO:8) and antisense primer: 5′-[…]-3′ (SEQ ID NO: 9); CD24 sense primer: 5′-[…]-3′ (SEQ ID NO: 10) andantisense primer: 5′-[…]-3′ (SEQ ID NO: 11); Survivin sense primer: 5′-[…]-3′ (SEQ ID NO: 12) and antisense primer: 5′-[…]-3′ (SEQ ID NO: 13) and ID2 sense primer: 5′-[…]-3′ (SEQ ID NO: 14) and antisense primer: 5′-[…]-3′ (SEQ ID NO: 15).
The amplification protocol consisted of incubations at 95° C. for 1 minute, 40 cycles (95° C. for 15 seconds, 60° C. for 15 seconds, 72° C. for 30 seconds). Incorporation of the SYBR Green dye into PCR products was monitored in real time with a Bio-Rad Detection System and subsequently analyzed using Bio-Rad CFX manager 2.1 software. The samples were pooled for each condition and run in duplicate. […]
The regulation of LRP6/FZD6 by rSIFN-co was investigated. […] Results were recorded as relative mRNA level of either LRP6 or FZD6 relative to GAPDH.

human hepatoma SMMC-7721 = experiment: Human hepatoma SMMC-7721 xenografts in nude mice (Example 1); format: in vivo; settings: for TV (mm^3, mean ± SD) (D0): day 0, start of treatment
Procedure: The test article was used without dilution. It was stored at 4° C. until thawed for injection.
The animals used were 4-6 weeks old male BALB/cA nu/nu mice, weighing about 23±2 g, obtained from the Shanghai Institute of Materia Medica (Shanghai, P.R. China). The study protocol was reviewed by the Committee on the Use and Care of Animals of Shanghai Institute of Materia Medica for compliance with regulations, and Committee approval was obtained prior to study initiation. Wherever possible, procedures used in this study were designed to avoid or minimize discomfort, distress, and pain to the animals. Animals that experience severe or chronic pain or distress that could not be relieved were painlessly euthanized, in accordance to regulations. Animals were housed 6 to a cage. They were ear-marked with ear hole punch identification. The room temperature was maintained at 25° C.±1° C. Lighting was set at 12 hr on and 12 hr off. Food was provided ad libitum. City tap water, filtered with a 5 micrometer (μm) filter, was provided to the animals ad libitum via water bottles. Neither the Study Director nor Huiyang Life Science and Technology Corp. was aware of any contaminant in the food or water that would interfere with or influence the intent and purpose of this study.
The test article (rSIFN-co) and the vehicle control were each administered intratumorally (i.t.). The test article was administered in a volume of 0.05 ml-0.15 ml per mouse per treatment, depending on the group to which the animal was assigned. […] Normal saline was injected in a volume of 0.15 ml per mouse, which was used as vehicle control.
Animals were assigned to treatment groups randomly. Initially, all animals were placed in one large animal cage. For assignment to the study, they were later separately housed, with 6 animals per cage per treatment group. Groups 1 and 2 are Control groups in which the animals were each administered the vehicle every other day after the first treatment. […] The animals in Groups 4, 5 and 6 were each given rSIFN-co every other day after the first treatment at 0.15 mg/mouse (Group 4) or 0.10 mg/mouse (Group 5) or 0.05 mg/mouse (Group 6), respectively. Tumor growth was monitored by measuring the length and width of each tumor twice a week during the course of the study. Each animal was also weighed twice a week during the course of the study.
Before commencement of this study, the xenografts were passaged twice in nude mice. Under sterile conditions, well-grown tumors were cut into 1.5 mm^3 fragments and one such fragment was injected by trocar needle into the right flank of each study animal. […] Individual tumor size (length and width) was measured twice per week with microcalipers. Tumor volume (V) was calculated using the formula: V=(length×width^2)/2. Individual relative tumor volume (RTV) was calculated using the formula: RTV=Vt/V0, where Vt is the tumor volume on the day of measurement and V0 is the tumor volume on the day of first treatment. Therapeutic effect of the test article or control article was expressed in terms of TIC (%), using the formula: TIC (%) (mean RTV of the treated group/mean RTV of the control group)×100%; and in terms of % Inhibition, using the formula: % Inhibition=100%−T/C %.

[1] = 0.05 mg/mouse i.t. every other day, day 21

B1: rSIFN-co: Recombinant super-compound interferon; amino acid sequence SEQ ID NO: 1 (same as interferon alfacon-1), encoded by SEQ ID NO: 2, novel tertiary structure (protein)
chain: MCDLPQTHSLGNRRALILLAQMRRISPFSCLKDRHDFGFPQEEFDGNQFQKAQAISVLHEMIQQTFNLFSTKDSSAAWDESLLEKFYTELYQQLNDLEACVIQEVGVEETPLMNVDSILAVKKYFQRITLYLTEKKYSPCAWEVVRAEIMRSFSLSTNLQERLRRKE
modifications: Amino acid sequence of recombinant interferon
- relative expression of the LRP6 mRNA (LRP6 mRNA in H460 cells): down-regulated to various extents
- TV (mm^3, mean ± SD) (D0) (human hepatoma SMMC-7721; 0.05 mg/mouse i.t. every other day): 124 ± 26 mm^3
- % Inhibition (human hepatoma SMMC-7721; [1]): 48.10%
- TV (mm^3, mean ± SD) (D21) (human hepatoma SMMC-7721; [1]): 592 ± 139 mm^3
- TV (mm^3, mean ± SD) (D0) (human hepatoma SMMC-7721; 0.10 mg/mouse i.t. every other day): 124 ± 15 mm^3
- TV (mm^3, mean ± SD) (D21) (human hepatoma SMMC-7721; 0.10 mg/mouse i.t. every other day, day 21): 573 ± 287 mm^3
- TV (mm^3, mean ± SD) (D0) (human hepatoma SMMC-7721; 0.15 mg/mouse i.t. every other day): 123 ± 20 mm^3
- TV (mm^3, mean ± SD) (D21) (human hepatoma SMMC-7721; 0.15 mg/mouse i.t. every other day, day 21): 505 ± 226 mm^3
